Results published in paper PMC7706287, “Targeting the myeloid checkpoint receptor SIRPα potentiates innate and adaptive immune responses to promote anti-tumor activity” (Journal of Hematology & Oncology, 2020).

Molecular target: T1, Ig-V domain of human SIRPα V1 (crystallography construct) (human, UniProt P78324-1)
T1 construct: Signal regulatory protein α, human, allele v1, IgV domain as crystallised; also called IgV domain of SIRPα v1
Assay: crystal structure; Fab-SIRPα V1 complex at 11.3 mg/mL in 10 mM Tris pH 7.4, 50 mM NaCl; sitting drop, 0.1 M sodium acetate pH 4.0, 0.2 M ammonium sulfate, 18% PEG 4000; 2.27 Angstroms
Settings: both partners purified

T1 sequence (P78324 33-147): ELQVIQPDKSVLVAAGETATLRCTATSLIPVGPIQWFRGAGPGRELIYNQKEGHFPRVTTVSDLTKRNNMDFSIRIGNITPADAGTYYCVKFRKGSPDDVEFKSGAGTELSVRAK

binding result: binds
B1: hAB21 anti-SIRPα Fab (Fab, V domains shown)
VH: DVQLVESGGGVVRPGESLRLSCEASGFTFSSNAMSWVRQAPGKGLEWVAGISSGSDTYYGDSVKGRLTISRDNSKNILYLQMNSLTAEDTAVYYCARETWNHLFDYWGQGTLVTVSS
VL: ELTQPPSVSVSPGQTARITCSGGSYSSYYYAWYQQKPGQAPVTLIYSDDKRPSNIPERFSGSSSGTTVTLTITGVQAEDEADYYCGGYDQSSYTNPFGGGTKLTVL
notes: Fab heavy chain; Fab light chain (humanized lambda); also called hAB21 Fab; Fab version of the antibody
